Positions count from the first letter of the chain named. One block for each binder: values may come before it.
Tests used:
[1] = target: T1, chimeric OX40 construct 1547: Human OX40 with mouse domain 2B, module 3 and domain 4A (aa 83-141) (human; mouse, UniProt P47741 79-139); experiment: flow cytometry, transfected 293-F cells
T1 construct: domain: 2B, module 3 and domain 4A; On 293-F cells; limits derived as for 1544
T1 sequence: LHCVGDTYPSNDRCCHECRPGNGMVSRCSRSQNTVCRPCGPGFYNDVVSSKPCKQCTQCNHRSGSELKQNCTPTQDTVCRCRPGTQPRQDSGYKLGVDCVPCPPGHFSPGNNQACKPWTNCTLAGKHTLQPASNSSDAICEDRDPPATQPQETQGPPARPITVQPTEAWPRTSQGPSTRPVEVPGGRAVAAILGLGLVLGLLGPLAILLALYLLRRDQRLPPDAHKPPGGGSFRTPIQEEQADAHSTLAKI
Experimental: (§1) The mouse/human chimeras were transiently transfected into FreeStyle 293-F cells (Invitrogen), incubated 48 hours in FreeStyle 293 expression medium (Invitrogen) 37 C, 8% CO₂, 135 rpm. The transfected cells were incubated with human OX40 antibodies, human OX40L (hOX40L, RnD Systems), mouse OX40L (mOX40L, RnD Systems) and controls for 30 min 4° C. and then detected with a-huIgG-PE (Jackson lmmunoresearch) 30 min 4° C. Cells were analyzed with FACS Verse (BD Biosciences). Binding to the different chimeric constructs were calculated as relative (mean fluorescence intensity) MFI compared to the binding of the isotype control.

[2] = target: T2, chimeric OX40 construct 1546: Human OX40 with mouse domains 2A, 2B and module 3 (aa 66-126) (human; mouse, UniProt P47741 62-124); experiment: flow cytometry, transfected 293-F cells
T2 construct: domain: 2A, 2B and module 3; On 293-F cells; limits derived as for 1544
T2 sequence: T1 sequence with G40E, P41T, D46E, V47A, S49N, S50Y, K51D, P52T, N111D
Experimental: as §1

[3] = target: T3, chimeric OX40 construct 1544: Human OX40 with mouse domains 1A, 1B and 2A (aa 30-81) (human; mouse, UniProt P47741 26-77); experiment: flow cytometry, transfected 293-F cells
T3 construct: domain: 1A, 1B and 2A; On transiently transfected FreeStyle 293-F cells
T3 sequence: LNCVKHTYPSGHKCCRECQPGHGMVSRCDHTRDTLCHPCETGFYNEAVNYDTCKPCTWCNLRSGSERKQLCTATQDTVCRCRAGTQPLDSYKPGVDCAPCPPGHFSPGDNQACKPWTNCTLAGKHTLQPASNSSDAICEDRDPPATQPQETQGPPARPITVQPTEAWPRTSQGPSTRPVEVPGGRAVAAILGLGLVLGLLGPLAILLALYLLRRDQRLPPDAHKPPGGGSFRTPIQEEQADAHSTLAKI
Experimental: as §1

[4] = target: T4, chimeric OX40 construct 1545: Human OX40 with mouse domains 1B, 2A and 2B (aa 43-107) (human; mouse, UniProt P47741 39-103); experiment: flow cytometry, transfected 293-F cells
T4 construct: domain: 1B, 2A and 2B; On 293-F cells; limits derived as for 1544
T4 sequence: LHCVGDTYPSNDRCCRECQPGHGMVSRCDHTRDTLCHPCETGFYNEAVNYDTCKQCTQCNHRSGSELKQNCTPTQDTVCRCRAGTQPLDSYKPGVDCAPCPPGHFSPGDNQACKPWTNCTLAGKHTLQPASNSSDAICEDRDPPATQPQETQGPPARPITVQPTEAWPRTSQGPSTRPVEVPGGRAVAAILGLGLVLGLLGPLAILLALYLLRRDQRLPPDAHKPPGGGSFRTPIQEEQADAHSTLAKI
Experimental: as §1

[5] = target: T5, chimeric OX40 construct 1548: Human OX40 with mouse module 3 and domains 4A and 4B (aa 108-167) (human; mouse, UniProt P47741 104-165); experiment: flow cytometry, transfected 293-F cells
T5 construct: domain: module 3 and domains 4A and 4B; On 293-F cells; limits derived as for 1544
T5 sequence: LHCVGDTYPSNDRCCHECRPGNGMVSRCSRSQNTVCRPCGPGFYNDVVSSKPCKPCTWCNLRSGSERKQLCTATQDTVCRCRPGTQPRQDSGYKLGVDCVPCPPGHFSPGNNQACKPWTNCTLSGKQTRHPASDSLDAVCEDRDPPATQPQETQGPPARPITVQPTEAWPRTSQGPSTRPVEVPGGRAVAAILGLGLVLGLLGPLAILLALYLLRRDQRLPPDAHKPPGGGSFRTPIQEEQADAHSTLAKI
Experimental: as §1

[6] = target: T6, construct 84: Construct containing the full length OX40 sequence (human, UniProt P43489 29-277); experiment: flow cytometry, transfected 293-F cells
T6 construct: On transiently transfected FreeStyle 293-F cells; also called human OX40 (full length, on 293-F cells)
T6 sequence: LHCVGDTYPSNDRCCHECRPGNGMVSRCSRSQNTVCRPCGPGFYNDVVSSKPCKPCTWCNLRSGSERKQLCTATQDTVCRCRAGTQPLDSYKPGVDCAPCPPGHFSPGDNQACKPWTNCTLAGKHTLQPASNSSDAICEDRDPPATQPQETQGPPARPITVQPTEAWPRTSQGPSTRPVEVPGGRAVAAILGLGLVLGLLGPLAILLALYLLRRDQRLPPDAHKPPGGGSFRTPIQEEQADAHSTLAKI
Experimental: as §1

CTLA-4 (BMS, Orencia) = CTLA-4 (BMS, Orencia) (human, UniProt P16410 38-152); experiment: cell-based or functional assay
[7] = target: T6, construct 84: Construct containing the …; experiment: flow cytometry on human/mouse OX40 chimeras
Experimental: as §1

CTLA-4 (BMS, Orencia), sequence (P16410 38-152 limits assumed): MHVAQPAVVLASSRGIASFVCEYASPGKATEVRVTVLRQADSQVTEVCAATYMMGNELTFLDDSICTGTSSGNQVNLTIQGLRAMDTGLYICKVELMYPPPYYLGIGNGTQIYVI

B1: anti-OX40 antibody 1168/1135 (antibody, V domains shown)
VH: EVQLLESGGGLVQPGGSLRLSCAASGFTFSGSSMSWVRQAPGKGLEWVSSISYYGGYTYYADSVKGRFTISRDNSKNTLYLQMNSLRAEDTAVYYCARYFPHYYFDYWGQGTLVTVSS
VL: not shown
notes: Tested as IgG
relative MFI compared to isotype control [1]: 1
relative MFI compared to isotype control [2]: 0.9
relative MFI compared to isotype control [3]: 13.2
relative MFI compared to isotype control [4]: 46.6
relative MFI compared to isotype control [5]: 1
relative MFI compared to isotype control [6]: 29.6

B4: bispecific molecule 1526/1585 (bispecific antibody, human IgG1, kappa)
heavy: not shown
light: DIQMTQSPSSLSASVGDRVTITCRASQSISSYLNWYQQKPGKAPKLLIYAASSLQSGVPSRFSGSGSGTDFTLTISSLQPEDFATYYCQQYGSDSLLTFGQGTKLEIKRTVAAPSVFIFPPSDEQLKSGTASVVCLLNNFYPREAKVQWKVDNALQSGNSQESVTEQDSKDSTYSLSSTLTLSKADYEKHKVYACEVTHQGLSSPVTKSFNRGECSGGGGSGGGGSAPLKIQAYFNETADLPCQFANSQNLSLSELVVFWQDQENLVLNEVYLGKERFDSVDSKYMGRTSFDSDSWTLRLHNLQIKDKGRYQCIIHHKKPTGMINIHQMNSELSVLA
Mean IL-2 level (pg/ml) induced at 1.5 nM bispecific antibody or control (CTLA-4 (BMS, Orencia)): 3200 pg/mL

B6: anti-OX40 antibody 1526/1527 (antibody, V domains shown)
VH: EVQLLESGGGLVQPGGSLRLSCAASGFTFSGYSMYWVRQAPGKGLEWVSGIGYSGYGTYYADSVKGRFTISRDNSKNTLYLQMNSLRAEDTAVYYCARYYFHDYAAYSLDYWGQGTLVTVSS
VL: DIQMTQSPSSLSASVGDRVTITCRASQSISSYLNWYQQKPGKAPKLLIYAASSLQSGVPSRFSGSGSGTDFTLTISSLQPEDFATYYCQQYGSDSLLTFGQGTKLEIK
notes: Tested as IgG
relative MFI compared to isotype control [1]: 1
relative MFI compared to isotype control [2]: 0.9
relative MFI compared to isotype control [3]: 1.1
relative MFI compared to isotype control [4]: 1.3
relative MFI compared to isotype control [5]: 12.7
relative MFI compared to isotype control [6]: 21.4

Results, then the binder that gave them:

relative MFI compared to isotype control [1]: 1
relative MFI compared to isotype control [2]: 0.9
relative MFI compared to isotype control [3]: 7.1
relative MFI compared to isotype control [4]: 40.2
relative MFI compared to isotype control [5]: 1.2
relative MFI compared to isotype control [6]: 29.4
B2: anti-OX40 antibody 1542/1135 (antibody, V domains shown)
VH: EVQLLESGGGLVQPGGSLRLSCAASGFTFGSSSMYWVRQAPGKGLEWVSGIGYYSYSTSYADSVKGRFTISRDNSKNTLYLQMNSLRAEDTAVYYCARGYPHHYFDYWGQGTLVTVSS
VL: not shown
notes: Tested as IgG

relative MFI compared to isotype control [1]: 1
relative MFI compared to isotype control [2]: 0.9
relative MFI compared to isotype control [3]: 8.4
relative MFI compared to isotype control [4]: 44.4
relative MFI compared to isotype control [5]: 1.1
relative MFI compared to isotype control [6]: 24.9
B3: anti-OX40 antibody 1482/1483 (antibody, V domains shown)
VH: EVQLLESGGGLVQPGGSLRLSCAASGFTFSSYAMSWVRQAPGKGLEWVSYISYYSGYTYYADSVKGRFTISRDNSKNTLYLQMNSLRAEDTAVYYCARGYGYLDYWGQGTLVTVSS
VL: DIQMTQSPSSLSASVGDRVTITCRASQSISSYLNWYQQKPGKAPKLLIYAASSLQSGVPSRFSGSGSGTDFTLTISSLQPEDFATYYCQQYGSLLTFGQGTKLEIK
notes: Tested as IgG

binding result [7]: binds
B5: human OX40L (hOX40L, RnD Systems) (ligand, UniProt P23510 51-183, looked up)
chain: QVSHRYPRIQSIKVQFTEYKKEKGFILTSQKEDEIMKVQNNSVIINCDGFYLISLKGYFSQEVNISLHYQKDEEPLFQLKKVRSVNSLMVASLTYKDKVYLNVTTDNTSLDDFHVNGGELILIHQNPGEFCVL
notes: also called human OX40 ligand
